Target: T1, Kaiso without BTB/POZ domain, GST fusion (UniProt Q86T24 113-672)
T1 sequence: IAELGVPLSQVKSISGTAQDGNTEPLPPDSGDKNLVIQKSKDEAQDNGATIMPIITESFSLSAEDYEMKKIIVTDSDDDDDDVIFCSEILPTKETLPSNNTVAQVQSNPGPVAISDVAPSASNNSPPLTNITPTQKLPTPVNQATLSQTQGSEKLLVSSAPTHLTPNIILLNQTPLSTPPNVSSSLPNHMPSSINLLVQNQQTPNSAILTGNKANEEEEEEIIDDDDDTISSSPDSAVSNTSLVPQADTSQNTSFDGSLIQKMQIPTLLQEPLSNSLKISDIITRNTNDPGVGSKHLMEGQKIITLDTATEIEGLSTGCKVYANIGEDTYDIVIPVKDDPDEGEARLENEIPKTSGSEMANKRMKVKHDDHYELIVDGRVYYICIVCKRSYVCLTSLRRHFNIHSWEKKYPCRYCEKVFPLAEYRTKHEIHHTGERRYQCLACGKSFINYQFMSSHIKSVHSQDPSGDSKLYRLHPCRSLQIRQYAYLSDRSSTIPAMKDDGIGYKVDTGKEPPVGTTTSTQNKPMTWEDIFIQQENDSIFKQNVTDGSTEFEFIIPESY
Experiment: EMSA

B1: met-SM-FAM / met-SM methylated probe (dsDNA)
DNA 1: GCAGCCGCGCCCAACGCTGGGAGATC
DNA 2: TCCCCAGCGTTGGGCGCGGCTGCGATC
modifications: 5-methylcytosine (printed meC) at strand 1 positions 6, 8, 15 and strand 2 positions 8, 15, 17
B1: binds.
